Experimental data as given in publication PMC8331139.

Columns and labels:
[1] = biological target: PSII core complex of Thalassiosira pseudonana (dimeric core, C2) (Thalassiosira pseudonana (endogenous)) (UniProt A0T0N4); test: cryo-EM structure; cryo-electron tomography of unstacked thylakoid membrane vesicles with sub-volume averaging (EMAN2); complexes in situ in the membrane; 578 PSII and 374 PSI sub-volumes; resolution 4.2 nm (PSII) and 3.3 nm (PSI); densities assigned by rigid-body fitting of structures of other species
[2] = biological target: FCPII-S, trimeric fucoxanthin chlorophyll a/c protein antenna of PSII (Thalassiosira pseudonana (endogenous)); test: as above

“FCPII-S, trimeric fucoxanthin chlorophyll a/c protein antenna of PSII (complex)” was tested, and the stoichiometry N [1] was 2 and the stoichiometry N [2] was 3.
Work on “PSII core complex of Thalassiosira pseudonana (dimeric core, C2) (from UniProt A0T0N4 1-38)” yielded a stoichiometry N [1] of 2.
